Positions of bridges follow the written chain, without caps; N, C: chain ends. No end group written: not given here.
Biological target: T1, sNUCB1 (N-terminally truncated human NUCB1, deletion of residues 1-31) (Homo sapiens, UniProt Q02818 32-461)
T1 construct: Expressed in E. coli; also called Calnuc; Ca2+ free NUCB1
T1 sequence: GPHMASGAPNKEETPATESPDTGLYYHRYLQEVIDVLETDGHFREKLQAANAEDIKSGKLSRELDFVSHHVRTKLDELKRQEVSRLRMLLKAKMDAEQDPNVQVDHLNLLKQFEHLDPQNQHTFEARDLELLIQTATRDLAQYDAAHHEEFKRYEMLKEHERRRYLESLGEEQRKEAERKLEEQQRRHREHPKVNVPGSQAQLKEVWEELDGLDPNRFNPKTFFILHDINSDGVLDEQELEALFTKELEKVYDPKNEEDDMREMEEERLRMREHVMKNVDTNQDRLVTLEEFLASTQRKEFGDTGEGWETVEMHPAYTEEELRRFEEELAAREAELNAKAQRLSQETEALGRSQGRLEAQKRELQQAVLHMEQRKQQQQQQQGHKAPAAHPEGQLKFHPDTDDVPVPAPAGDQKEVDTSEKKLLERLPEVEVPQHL
Experiment: inferred from TEM of Amylin fibrillization with Ca2+ free NUCB1 added 1:1 at t=0, 2, 7 and 15 min
Excerpt: Aggregation of Amylin involves an initial lag phase, which is associated with the formation of a nucleus. This nucleation phase is followed by the growth phase where monomers/oligomers add on to the nucleus converting the protofibrillar species into mature fibrils (Merlini and Bellotti, N. Engl. J. Med. 349, 583-596, 2003). Inhibitors of amyloidogenesis, known to date, either prolong the lag phase or slow down the growth phase. […] In the second reaction, Amylin oligomerization was allowed to proceed for 2 min into the reaction after which equimolar amount of NUCB1 was added. […] In the third reaction, NUCB1 was added after the nucleation phase of Amylin aggregation was complete (t=7 min). […] In the fourth experiment, the fibrillization reaction was allowed to proceed to the growth phase and NUCB1 was added during the elongation phase (t=1 5 min). […] This summarizes and supports the observation that Ca2+ free NUCB1 can inhibit the aggregation of Amylin at any stage during the fibrillization reaction.

binding result: binds
B1: Wild type human IAPP (Amylin) (peptide, UniProt P10997 34-70, looked up)
peptide: KCNTATCATQRLANFLVHSSNNFGAILSSTNVGSNTY-NH2
modifications: disulfide 2-7 (inferred)
notes: mature; Present in the assays as monomers, oligomers, protofibrils or mature fibrils, depending on the time of addition; also called hIAPP; Amylin peptide

Reference: patent US20110224143A1 (ROCKERFELLER UNIVERSITY, published 2011)
